According to patent US20220332804A1 (CSL INNOVATION, published 2022):

Legend:
Test in all cases: SPR, KD relative to WT C2;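 note: biacore SPR at 37 °C, anti-C2 mAbs captured on anti-human IgG chips with alanine or serine point mutants of C2 as analyte, KD from 1:1 fit compared with wild-type C2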
[1] = molecular target: T1, human C2 K274A (human, UniProt P06681 21-752)
T1 sequence: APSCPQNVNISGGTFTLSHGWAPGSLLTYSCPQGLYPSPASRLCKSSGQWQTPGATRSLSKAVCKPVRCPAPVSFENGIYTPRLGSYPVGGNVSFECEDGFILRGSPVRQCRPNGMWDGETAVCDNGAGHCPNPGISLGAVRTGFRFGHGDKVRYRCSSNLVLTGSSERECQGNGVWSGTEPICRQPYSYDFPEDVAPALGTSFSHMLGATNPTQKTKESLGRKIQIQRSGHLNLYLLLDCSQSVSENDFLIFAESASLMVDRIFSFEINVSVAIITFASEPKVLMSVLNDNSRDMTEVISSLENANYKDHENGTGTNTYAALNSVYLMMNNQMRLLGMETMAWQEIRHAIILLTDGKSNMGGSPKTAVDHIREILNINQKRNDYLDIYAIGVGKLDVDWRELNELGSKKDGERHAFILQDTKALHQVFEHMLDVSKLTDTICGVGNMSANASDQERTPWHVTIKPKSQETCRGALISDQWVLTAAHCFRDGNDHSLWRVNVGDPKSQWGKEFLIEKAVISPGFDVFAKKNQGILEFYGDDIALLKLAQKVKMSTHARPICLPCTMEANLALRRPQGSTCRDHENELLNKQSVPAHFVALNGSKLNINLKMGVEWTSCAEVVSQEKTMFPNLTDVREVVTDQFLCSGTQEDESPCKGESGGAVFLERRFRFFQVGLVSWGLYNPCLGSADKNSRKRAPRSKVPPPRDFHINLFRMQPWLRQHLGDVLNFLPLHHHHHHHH

[2] = molecular target: T2, human C2 E275A (human, UniProt P06681 21-752)
T2 sequence: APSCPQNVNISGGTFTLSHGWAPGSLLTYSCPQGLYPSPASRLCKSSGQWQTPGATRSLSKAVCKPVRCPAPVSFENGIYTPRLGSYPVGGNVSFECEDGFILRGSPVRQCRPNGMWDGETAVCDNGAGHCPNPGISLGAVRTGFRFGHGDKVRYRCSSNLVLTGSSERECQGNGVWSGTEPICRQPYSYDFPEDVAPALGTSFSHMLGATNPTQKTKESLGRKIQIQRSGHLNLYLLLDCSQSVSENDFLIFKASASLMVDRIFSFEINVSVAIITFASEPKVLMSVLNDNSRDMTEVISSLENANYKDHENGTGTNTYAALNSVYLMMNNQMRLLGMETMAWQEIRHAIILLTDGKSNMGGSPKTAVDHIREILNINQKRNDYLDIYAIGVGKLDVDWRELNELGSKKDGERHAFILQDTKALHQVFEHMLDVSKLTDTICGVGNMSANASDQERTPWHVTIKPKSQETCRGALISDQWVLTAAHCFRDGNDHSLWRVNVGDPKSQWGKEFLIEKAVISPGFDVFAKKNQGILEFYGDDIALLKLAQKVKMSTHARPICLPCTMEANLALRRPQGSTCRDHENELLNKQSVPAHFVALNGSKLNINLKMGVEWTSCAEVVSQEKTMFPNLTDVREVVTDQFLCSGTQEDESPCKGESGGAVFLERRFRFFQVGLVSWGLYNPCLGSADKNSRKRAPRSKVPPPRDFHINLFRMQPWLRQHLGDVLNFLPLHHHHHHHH

[3] = molecular target: T3, human C2 E450A (human, UniProt P06681 21-752)
T3 sequence: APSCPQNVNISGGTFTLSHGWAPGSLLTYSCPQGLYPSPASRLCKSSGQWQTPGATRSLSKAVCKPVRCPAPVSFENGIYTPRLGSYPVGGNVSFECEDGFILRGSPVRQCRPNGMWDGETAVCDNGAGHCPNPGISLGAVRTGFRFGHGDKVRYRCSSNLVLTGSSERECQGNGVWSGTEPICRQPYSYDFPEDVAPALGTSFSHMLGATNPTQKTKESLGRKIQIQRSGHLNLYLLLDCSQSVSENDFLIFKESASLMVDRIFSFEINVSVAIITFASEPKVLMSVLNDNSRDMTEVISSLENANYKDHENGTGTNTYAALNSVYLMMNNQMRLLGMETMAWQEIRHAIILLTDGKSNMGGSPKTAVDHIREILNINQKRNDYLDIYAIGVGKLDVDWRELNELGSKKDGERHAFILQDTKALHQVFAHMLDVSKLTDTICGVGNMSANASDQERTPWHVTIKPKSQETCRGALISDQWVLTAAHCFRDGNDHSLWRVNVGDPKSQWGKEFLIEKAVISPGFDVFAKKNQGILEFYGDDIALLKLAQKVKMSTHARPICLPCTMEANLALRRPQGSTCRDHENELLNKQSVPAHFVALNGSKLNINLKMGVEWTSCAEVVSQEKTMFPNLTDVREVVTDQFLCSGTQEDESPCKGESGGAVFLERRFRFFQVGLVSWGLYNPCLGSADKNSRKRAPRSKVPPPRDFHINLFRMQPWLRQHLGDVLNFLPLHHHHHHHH

[4] = molecular target: T4, human C2 R519A (human, UniProt P06681 21-752)
T4 sequence: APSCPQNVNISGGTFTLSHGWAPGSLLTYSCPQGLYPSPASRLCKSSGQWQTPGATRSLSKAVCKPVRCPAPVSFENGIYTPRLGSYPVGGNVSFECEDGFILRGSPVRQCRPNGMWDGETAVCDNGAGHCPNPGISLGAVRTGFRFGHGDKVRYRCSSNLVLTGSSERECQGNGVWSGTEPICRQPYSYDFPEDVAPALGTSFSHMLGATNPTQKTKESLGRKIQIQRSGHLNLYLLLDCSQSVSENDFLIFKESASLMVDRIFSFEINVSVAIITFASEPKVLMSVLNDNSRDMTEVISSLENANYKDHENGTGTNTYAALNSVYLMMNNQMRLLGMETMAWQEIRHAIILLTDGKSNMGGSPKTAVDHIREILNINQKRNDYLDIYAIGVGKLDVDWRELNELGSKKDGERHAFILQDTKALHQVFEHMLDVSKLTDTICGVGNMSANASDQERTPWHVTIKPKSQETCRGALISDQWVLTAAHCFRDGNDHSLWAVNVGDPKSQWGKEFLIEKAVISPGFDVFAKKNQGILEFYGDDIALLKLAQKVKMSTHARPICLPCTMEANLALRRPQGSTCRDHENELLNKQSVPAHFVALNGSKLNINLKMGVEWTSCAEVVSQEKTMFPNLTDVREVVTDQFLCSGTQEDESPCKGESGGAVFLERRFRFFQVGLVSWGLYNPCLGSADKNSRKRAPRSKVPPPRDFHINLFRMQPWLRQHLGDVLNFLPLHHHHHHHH

B1: RF16-242 (antibody, human IgG4 S228P, lambda, V domains shown)
VH: EVQLLQSGAEVKKPGESLKISCKGSGYSFTSYWIGWVRQMPGKGLEWMGIIYPGDSDTRYSPSFQGQVTISADKSISTAYLQWSSLKASDTAMYYCARRGHYGDYFDYWGQGTLVTVSS
VL: SYELTQPPSVSVSPGQTARITCSGDALPKKYAYWYHQKSGQAPVLVIYEDRRRPSEIPERFSGSSSGTMATLTITGAQVEDEGVYFCYSRDRAGNQRVFGGGTQLTVLG
notes: pH-dependent anti-C2 antibody from a phage display library
Fold diff [1]: 12 fold | Fold diff [2]: 6 fold | Fold diff [3]: 3 fold | Fold diff [4]: 1 fold
